Among the data in publication PMC7960628 are stoichiometry N values, retold here.

Common to all, as to assay: SEC; gel filtration chromatography of the Ni-NTA purified motif-foldon fusion proteins; trimer
Assay [1] addresses 6xHis-(GPP)5GFQGEK(GPP)5-foldon.
Assay [2] concerns the target 6xHis-(GPP)5GPKGER(GPP)5-foldon.
In assay [3] the target is 6xHis-(GPP)5GSQGEK(GPP)5-foldon (mouse | not stated).

Take “6xHis-(GPP)5GFQGEK(GPP)5-foldon (designed binder)”: in assay [1], the stoichiometry N (in general, the number of molecules, sites or subunits per partner or assembly) was 3.

With “6xHis-(GPP)5GPKGER(GPP)5-foldon (designed binder)”, in assay [2], the stoichiometry N was found to be 3.

“6xHis-(GPP)5GSQGEK(GPP)5-foldon (designed binder)” came in with a stoichiometry N in assay [3] of 3.
